Source: the supplement of paper PMC7877785
± gives the uncertainty stated by the source.

Assay: self-splicing fitness, log relative to wild type (ln ratio); higher = more splicing; Tetrahymena group I intron in knt gene, E. coli kanamycin selection, DiMSum; sequences stand for … in CUCUCU…GGAGGGAAAAGUUAUCAGGCAUGCACCUGGUAGCUAGUCUUUAAACCAAUAGAUUGCAUCGGUUUAAAAGGCAAGACCGUCAAAUUGCGGGAAAGGGGUCAACAGCCGUUCAGUACCAAGUCUCAGGGGAAACUUUGAGAUGGCCUUGCAAAGGGUAUGGUAAUAAGCUGACGGACAUGGUCCUAACCACGCAGCCAAGUCCUAAGUCAACAGAUCUUCUGUUGAUAUGGAUGCAGUUCACAGACUAAAUGUCGGUCGGGGAAGAUGUAUUCUUCUCAUAAGAUAUAGUCGGACCUCUCCUUAAUGGGAGCUAGCGGAUGAAGUGAUGCAACACUGGAGCCGCUGGGAACUAAUUUGUAUGCGAAAGUAUAUUGAUUAGUUUUGGAGUACUCGUGGUCG
Procedure, shortened: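 Library with all eight P1ex-region intron nucleotides randomised, intron inside the knt kanamycin-resistance gene on pET-22b(+), in E. coli BL21(DE3). Cells grew overnight at 37°C or 30°C on LB agar with or without 25 μg/mL kanamycin (plus 100 μg/mL carbenicillin, 50 μM IPTG, 0.2% rhamnose), in six replicate transformations. Pooled colonies were amplicon-sequenced on Illumina HiSeq 2500. DiMSum fitness is the error-weighted combination of wild-type-normalised replicate fold changes, kanamycin versus none.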

Sequence | self-splicing fitness (ln) (30 °C) | self-splicing fitness (ln) (37 °C)
CUAUAGCAAUAUUACGUUCU | -3.41 ± 0.35 | -3.02 ± 0.47
CGCAAGCAAUAUUACGCAGG | -2.74 ± 0.12 | -1.01 ± 0.12
ACUGAGCAAUAUUACGGCUU | -3.22 ± 0.21 | -3.27 ± 0.4
GUGGAGCAAUAUUACGUACA | -2.11 ± 0.33 | 
GGGCAGCAAUAUUACGCUUA | 0.359 ± 0.12 | 0.25 ± 0.15
CCAUAGCAAUAUUACGGCGA | -2.03 ± 0.26 | -1.92 ± 0.23
AGUCAGCAAUAUUACGGUUC | -2.98 ± 0.11 | -1.51 ± 0.11
ACAAAGCAAUAUUACGGCCC | -0.546 ± 0.13 | -0.479 ± 0.2
UCAUAGCAAUAUUACGUACG | -1.57 ± 0.12 | -0.499 ± 0.13
GUUCAGCAAUAUUACGCCUU | -0.418 ± 0.083 | 0.046 ± 0.082
CAGGAGCAAUAUUACGCCGG |  | -2.22 ± 0.24
AAAUAGCAAUAUUACGCCCA | -0.102 ± 0.18 | -0.392 ± 0.17
GAGGAGCAAUAUUACGAGUA |  | -1.51 ± 0.37
CAGCAGCAAUAUUACGGCGU | -1.61 ± 0.07 | -0.859 ± 0.08
GUAGAGCAAUAUUACGAGGA | -2.61 ± 0.26 | 
AACGAGCAAUAUUACGCCGC | -2.6 ± 0.24 | -3.58 ± 0.39
CUCAAGCAAUAUUACGCGUA | -3.49 ± 0.22 | -1.78 ± 0.15
UGACAGCAAUAUUACGAUCA | -0.329 ± 0.068 | 0.116 ± 0.089
UCAAAGCAAUAUUACGCUGC | -3.2 ± 0.43 | -2.49 ± 0.33
CCCAAGCAAUAUUACGACCU | -3.38 ± 0.26 | -2.44 ± 0.25
CGCAAGCAAUAUUACGCCGA | -2.85 ± 0.26 | -2 ± 0.18
UCGUAGCAAUAUUACGGCAU | -3.93 ± 0.27 | -2.53 ± 0.28
AGCCAGCAAUAUUACGCCAU | -1.5 ± 0.2 | -1.89 ± 0.32
UUCAAGCAAUAUUACGAUGC | -3.39 ± 0.45 | -1.85 ± 0.28
UUCUAGCAAUAUUACGUGUA | -1.26 ± 0.08 | -0.8 ± 0.094
CGGUAGCAAUAUUACGAUAG | -0.323 ± 0.11 | 0.279 ± 0.14
CCCUAGCAAUAUUACGAUCG | -3.91 ± 0.35 | -1.47 ± 0.18

Sequence | self-splicing fitness (ln) (30 °C) | self-splicing fitness (ln) (37 °C)
GAUUAGCAAUAUUACGCCAA | -3.48 ± 0.31 | -1.91 ± 0.25
ACGAAGCAAUAUUACGGGAG | -3.96 ± 0.22 | -2.73 ± 0.17
CCCUAGCAAUAUUACGGACA | -2.94 ± 0.32 | -2.62 ± 0.24
AGCAAGCAAUAUUACGUGAU | -2.1 ± 0.072 | -1.32 ± 0.08
GAUUAGCAAUAUUACGUAUU | -3 ± 0.12 | -1.65 ± 0.1
GGCAAGCAAUAUUACGUCAG | -4.5 ± 0.34 | -2.4 ± 0.26
AUACAGCAAUAUUACGCGCU | -0.631 ± 0.094 | 0.0173 ± 0.12
AGGUAGCAAUAUUACGAGUA | -2.415 ± 0.023 | -1.52 ± 0.035
CUCCAGCAAUAUUACGAUGC | -2.81 ± 0.25 | -2.95 ± 0.32
AGACAGCAAUAUUACGAGGA | -3.17 ± 0.22 | -0.745 ± 0.17
AGCGAGCAAUAUUACGCUAA | -1.62 ± 0.25 | -1.85 ± 0.3
UCCUAGCAAUAUUACGCCAC | -1.72 ± 0.28 | -1.15 ± 0.27
AGCUAGCAAUAUUACGCAAA | -1.8 ± 0.18 | -2.24 ± 0.24
UCAGAGCAAUAUUACGUCUU | -3.53 ± 0.32 | -2.53 ± 0.36
CUGAAGCAAUAUUACGAAUU | -3.24 ± 0.12 | -1.86 ± 0.14
AGGUAGCAAUAUUACGUCAC | -3.764 ± 0.036 | -2.23 ± 0.042
UUACAGCAAUAUUACGCCGA | -1.29 ± 0.2 | -0.354 ± 0.22
UCGGAGCAAUAUUACGGCGG | -1.42 ± 0.11 | -0.955 ± 0.17
GGAUAGCAAUAUUACGGACG | -0.899 ± 0.13 | -0.693 ± 0.17
GUGAAGCAAUAUUACGCCCC | -0.362 ± 0.33 | 
GGACAGCAAUAUUACGAAGA | -2.27 ± 0.22 | -0.517 ± 0.19
GCCUAGCAAUAUUACGUAAG | -1.83 ± 0.088 | -0.757 ± 0.11
UGGCAGCAAUAUUACGCACA | -1.24 ± 0.11 | -0.127 ± 0.12
AACGAGCAAUAUUACGGAAG | -2.67 ± 0.16 | -2.45 ± 0.28
UCUGAGCAAUAUUACGAGAC | -2.52 ± 0.17 | 
UUACAGCAAUAUUACGCAUA | -1.34 ± 0.091 | -0.527 ± 0.1
ACUUAGCAAUAUUACGGGUC | -3.35 ± 0.13 | -3.27 ± 0.2

Sequence | self-splicing fitness (ln) (30 °C) | self-splicing fitness (ln) (37 °C)
AUCCAGCAAUAUUACGUCAG | -2.99 ± 0.11 | -2.15 ± 0.12
UGCGAGCAAUAUUACGAUUA | -1.56 ± 0.13 | -1.1 ± 0.11
ACCGAGCAAUAUUACGGUAC | -2.82 ± 0.3 | -2.46 ± 0.33
CAGCAGCAAUAUUACGAAGU | -2.46 ± 0.14 | -2.03 ± 0.24
CGGGAGCAAUAUUACGCGCG |  | -0.901 ± 0.27
CACAAGCAAUAUUACGUCCC | -2.13 ± 0.33 | -1.07 ± 0.46
GCUCAGCAAUAUUACGGAGC |  | -1.82 ± 0.44
GAAAAGCAAUAUUACGCUGA | -1.91 ± 0.24 | -1.65 ± 0.21
CCGGAGCAAUAUUACGGGAA | -2.09 ± 0.32 | -2.13 ± 0.37
GCAUAGCAAUAUUACGGCUC | 0.0416 ± 0.087 | -0.0445 ± 0.088
UCGCAGCAAUAUUACGUUUC | -3.87 ± 0.2 | -1.66 ± 0.12
UAGGAGCAAUAUUACGUCCA | -1.23 ± 0.17 | -0.339 ± 0.18
CGGGAGCAAUAUUACGAGAC | -3.18 ± 0.45 | -2.45 ± 0.44
AAUAAGCAAUAUUACGGUUC | -2.72 ± 0.14 | -1.77 ± 0.15
AGAUAGCAAUAUUACGGUGU | -2.01 ± 0.096 | -1.15 ± 0.1
ACGAAGCAAUAUUACGAUGU | -3.96 ± 0.19 | -2.74 ± 0.18
GUGAAGCAAUAUUACGUCCU | -0.476 ± 0.12 | 0.382 ± 0.18
AAAAAGCAAUAUUACGGAUC | -0.895 ± 0.068 | -0.418 ± 0.092
GGCUAGCAAUAUUACGACAU | -0.413 ± 0.013 | 0.0789 ± 0.033
AUGGAGCAAUAUUACGCAGU | -3.57 ± 0.37 | -3.17 ± 0.37
GUGAAGCAAUAUUACGUUGC |  | -1.92 ± 0.46
ACAAAGCAAUAUUACGGUUU | -1.71 ± 0.076 | -0.493 ± 0.083
UGUAAGCAAUAUUACGGUUC |  | -2.92 ± 0.31
CCAAAGCAAUAUUACGGUGG | -4.1 ± 0.19 | -1.76 ± 0.16
ACGUAGCAAUAUUACGGUCU | -0.728 ± 0.078 | -0.139 ± 0.097
